According to patent US20200332015A1 (NAMAB THERAPEUTICS, published 2020):

T1: mouse Fc-tagged mouse CD137 (R&D Systems, cat. 937-4B-050) (mouse, UniProt P20334 24-187)
T1 construct: also called mouse CD137-Fc chimeric protein
T1 sequence (looked up): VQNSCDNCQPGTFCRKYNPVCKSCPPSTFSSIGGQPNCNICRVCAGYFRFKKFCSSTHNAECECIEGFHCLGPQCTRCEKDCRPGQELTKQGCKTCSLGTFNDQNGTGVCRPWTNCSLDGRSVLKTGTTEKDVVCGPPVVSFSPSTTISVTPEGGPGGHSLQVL


Legend:
[1] = biological target: T2, human CD137 expressed on Jurkat cells (human, UniProt Q07011 24-255); test: cell-based or functional assay
[2] = biological target: T2, human CD137 expressed on Jurkat cells; test: cell-based or functional assay; remark: listed apart in the source
[3] = biological target: T2, human CD137 expressed on Jurkat cells; test: cell-based or functional assay; remark: listed apart in the source
[4] = biological target: T3, mouse serum albumin (mouse, UniProt P07724 25-608); test: SPR T200, SA coupled to chip, pH 5.5
T3 construct: also called mouse SA; MSA
Experimental: (§1) Affinity of molecules to serum albumin (SA) of the different species was determined by SPR measurements using a Biacore T200 device (GE Healthcare). SA was directly coupled to a CM5 sensor chip (GE Healthcare) using amine coupling chemistry. […] The assay was run in a 1×PBS-Tween buffer at pH 5.5.

[5] = biological target: T4, human serum albumin (human, UniProt P02768 25-609); test: SPR T200, SA coupled to chip, pH 5.5
T4 construct: also called human SA; HSA
Experimental: as §1

[6] = biological target: T1, mouse Fc-tagged mouse CD137 (R&D …); test: SPR T200, antigen-Fc captured, molecule as analyte
Experimental: (§2) Affinity to PDL1 of the different species was determined by SPR measurements using a Biacore T200 device (GE Healthcare). An antibody specific for the Fc region of human IgGs was immobilized on a sensor chip (CM5 sensor chip, GE Healthcare) by amine-coupling. For all formats, with the exception of the Fc containing Morrison formats, PDL1-Fc chimeric protein from different species were captured by the immobilized antibody. Three-fold serial dilutions of the molecules specific for PDL1 (0.12-90 nM) were injected into the flow cells for three minutes and dissociation was monitored for 10 minutes. After each injection cycle, surfaces were regenerated with one injection of a 3 M MgCl₂ solution. The apparent dissociation (kd) and association (kₐ) rate constants and the apparent dissociation equilibrium constant (KD) were calculated using one-to-one Langmuir binding model. Affinity to CD137 of the different species was determined using the identical setup as for PDL1 with the exception that CD137-Fc chimeric proteins from different species were captured by the immobilized antibody.

[7] = biological target: human PDL1-Fc chimeric protein (human, UniProt Q9NZQ7 19-238, limits assumed); test: SPR T200, antigen-Fc captured, molecule as analyte
Experimental: as §2

[8] = biological target: T5, Fc tagged human CD137 (R&D Systems, cat. 838-4B-100) (human, UniProt Q07011 24-186); test: SPR T200, antigen-Fc captured, molecule as analyte
T5 construct: also called CD137 Fc chimera; human CD137-Fc chimeric protein
Experimental: as §2

[9] = biological target: T6, cynomolgus monkey Fc-tagged CD137 (R&D Systems, cat. 9324-4B-100) (cynomolgus monkey, UniProt A9YYE7 24-186); test: SPR T200, antigen-Fc captured, molecule as analyte
T6 construct: also called cynomolgus CD137-Fc chimeric protein
T6 sequence (A9YYE7 entry or part of it): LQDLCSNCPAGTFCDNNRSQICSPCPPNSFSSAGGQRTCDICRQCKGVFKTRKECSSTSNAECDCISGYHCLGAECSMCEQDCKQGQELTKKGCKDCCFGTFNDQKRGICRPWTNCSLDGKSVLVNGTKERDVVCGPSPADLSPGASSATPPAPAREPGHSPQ
Experimental: as §2

[10] = biological target: T2, human CD137 expressed on Jurkat cells; test: cell-based or functional assay; remark: listed apart in the source
[11] = biological target: T7, recombinant human CD137 extracellular domain (Peprotech, cat. 310-15-1MG) (human, UniProt Q07011 24-186); test: SPR T200, Morrison format captured, ECD analyte
T7 construct: also called human CD137 ECD; CD137 ECD
Experimental: as §2
(§3) The Fc containing formats were directly captured by the antibody specific for the Fc region of human IgGs. Two-fold serial dilutions of PDL1 extracellular domain or CD137 extracellular domain ranging from 90 to 0.35 nM were tested for binding to the IgG captured on the biosensor chip. After each injection cycle, surfaces were regenerated with one injection of a 3 M MgCl2 solution.

[12] = biological target: T8, human PDL1 extracellular domain (human, UniProt Q9NZQ7 19-238); test: SPR T200, Morrison format captured, ECD analyte
T8 construct: extracellular domain; Analyte for the Fc containing Morrison formats
Experimental: as §2, §3

max. activation, HCC827 +IFNg, 24h [3] [%] | max. activation, NF-kB reporter gene, CHO-PD-L1, 24h [3] [%] | rel. IC50 (urelumab/test), HCC827 +IFNg, 24h [3] [ratio] | rel. IC50 (urelumab/test), NF-kB reporter gene, CHO-PD-L1, 24h [3] [ratio] | Kd [4] [nM] | koff [4] [s⁻¹] | kon [4] [M⁻¹ s⁻¹] | Kd [5] [nM] | koff [5] [s⁻¹] | kon [5] [M⁻¹ s⁻¹] | Kd [7] [nM] | koff [7] [s⁻¹] | kon [7] [M⁻¹ s⁻¹] | Kd [8] [nM] | koff [8] [s⁻¹] | kon [8] [M⁻¹ s⁻¹] | Binder | further results
135 | 663 | 0.46 | 0.1 | 66 | 0.0085 | 130000 | 2.8 | 0.00067 | 240000 | 0.11 | 0.00017 | 1.6e+06 | 5.1 | 0.0007 | 140000 | PRO1057 (38_02_A04 sc01 scDb-i/33-03-G02 sc01 scDb-o/mxr HSA (23-13-A01-sc03, sk17sh4)) (other, Trispecific scDb-scFv) DIQMTQSPSSLSASVGDRVTITCQASQSINDYLAWYQQKPGKAPKLLIYKASTLASGVPSRFSGSGSGTDFTLTISSLQPEDFATYYCQQGYIITDIDNVFGTGTKVTVLGGGGGSQVQLQESGPGLVKPSETLSLTCKVSGFSFSNSYWICWIRQPPGKGLEWIGCTFVGSSDSTYYANWAKGRVTISVDSSKNQFSLKLSSVTAADTAVYYCARHPSDAVYGYANNLWGQGTLVTVSSGGGGSGGGGSGGGGSGGGGSIQMTQSPSSLSASVGDRVTITCQASQSINNVLAWYQQKPGKAPKLLIYRASTLASGVPSRFSGSGSGTDFTLTISSLQPEDFATYYCQSSYGNYGDFGTGTKVTVLGGGGGSQVQLQESGPGLVKPSETLSLTCKVSGFSFSSGYDMCWIRQPPGKGLEWIGCVVAGSVDITYYASWAKGRVTISVDSSKNQFSLKLSSVTAADTAVYYCARKDAYSDAFNLWGQGTLVTVSSGGGGSGGGGSVVMTQSPSSLSASVGDRVTITCQASQIISSRSAWYQQKPGQPPKLLIYQASKLASGVPSRFSGSGSGTDFTLTISSLQPEDFATYYCQCTYIDSNFGAFGGGTKLTVLGGGGGSGGGGSGGGGSGGGGSEVQLVESGGGLVQPGGSLRLSCAASGFSFSSSYWICWVRQAPGKGLEWVGCVFTGDGTTYYASWAKGRFTISRDNSKNTVYLQMNSLRAEDTATYFCARPVSVYYYGMDLWGQGTLVTVSS | EC50 NFkB-luciferase, CHO-PDL1 cells, 24 h, + HBA (so in the source) [1]: 0.792 µg/mL; Top of curve fit, NFkB-luciferase, CHO-PDL1 cells, 24 h, + HBA (so in the source) [1]: 745; EC50 NFkB-luciferase, CHO-PDL1 cells, 6 h, + HSA [2]: 0.112 µg/mL; Top of curve fit, NFkB-luciferase, CHO-PDL1 cells, 6 h, + HSA [2]: 463; rel. IC50 (urelumab/test), HCC827 -IFNg, 24h [3]: 0.62 ratio; Kd [6]: 1200 nM; koff [6]: 0.085 s⁻¹; kon [6]: 69000 M⁻¹ s⁻¹; Kd [9]: 4.8 nM; koff [9]: 0.00079 s⁻¹; kon [9]: 160000 M⁻¹ s⁻¹; EC50 NFkB-luciferase, HCC827 with IFNy stimulation, +HSA [10]: 0.115 µg/mL; EC50 NFkB-luciferase, HCC827 without IFNy stimulation, +HSA [10]: 0.0766 µg/mL
129 | 152 | 1.88 | 0.97 | 43 | 0.0095 | 220000 | 2.9 | 0.00072 | 250000 | 0.0037 | 2.3e-05 | 6.2e+06 | 2.6 | 0.0005 | 190000 | PRO1186 (37-20-B03 sc01 / 38-02-A04 sc01 / 23-13-A01 sc03, scDb-scFv) (other, Trispecific scDb-scFv) DIQMTQSPSSLSASVGDRVTITCQASQSIGTYLAWYQQKPGKAPKLLIYRAFILASGVPSRFSGSGSGTDFTLTISSLQPEDFATYYCQSNFYSDSTTIGPNAFGTGTKVTVLGGGGGSQVQLQESGPGLVKPSETLSLTCKVSGFSFSNSYWICWIRQPPGKGLEWIGCTFVGSSDSTYYANWAKGRVTISVDSSKNQFSLKLSSVTAADTAVYYCARHPSDAVYGYANNLWGQGTLVTVSSGGGGSGGGGSGGGGSGGGGSIQMTQSPSSLSASVGDRVTITCQASQSINNVLAWYQQKPGKAPKLLIYRASTLASGVPSRFSGSGSGTDFTLTISSLQPEDFATYYCQSSYGNYGDFGTGTKVTVLGGGGGSQVQLQESGPGLVKPSETLSLTCKVSGFSFNSDYWIYWIRQPPGKGLEWIGSIYGGSSGNTQYASWAQGRVTISVDSSKNQFSLKLSSVTAADTAVYYCARGYVDYGGATDLWGQGTLVTVSSGGGGSGGGGSVVMTQSPSSLSASVGDRVTITCQASQIISSRSAWYQQKPGQPPKLLIYQASKLASGVPSRFSGSGSGTDFTLTISSLQPEDFATYYCQCTYIDSNFGAFGGGTKLTVLGGGGGSGGGGSGGGGSGGGGSEVQLVESGGGLVQPGGSLRLSCAASGFSFSSSYWICWVRQAPGKGLEWVGCVFTGDGTTYYASWAKGRFTISRDNSKNTVYLQMNSLRAEDTATYFCARPVSVYYYGMDLWGQGTLVTVSS | –
– | 189 | – | 0.09 | – | – | – | – | – | – | – | – | – | – | – | – | PRO1059 (33-03-G02 IgG1 LC with 38_02_A04 sc01 scFv, PDL1/CD137(scFv) silent Morrison) (bispecific antibody, IgG1 with scFv fused to the light chain; also called Morrison-L) light: DIQMTQSPSSLSASVGDRVTITCQASQSINDYLAWYQQKPGKAPKLLIYKASTLASGVPSRFSGSGSGTDFTLTISSLQPEDFATYYCQQGYIITDIDNVFGTGTKVTVLGTVAAPSVFIFPPSDEQLKSGTASVVCLLNNFYPREAKVQWKVDNALQSGNSQESVTEQDSKDSTYSLSSTLTLSKADYEKHKVYACEVTHQGLSSPVTKSFNRGECGGGGSGGGGSIQMTQSPSSLSASVGDRVTITCQASQSINNVLAWYQQKPGKAPKLLIYRASTLASGVPSRFSGSGSGTDFTLTISSLQPEDFATYYCQSSYGNYGDFGTGTKVTVLGGGGGSGGGGSGGGGSGGGGSQVQLQESGPGLVKPSETLSLTCKVSGFSFSNSYWICWIRQPPGKGLEWIGCTFVGSSDSTYYANWAKGRVTISVDSSKNQFSLKLSSVTAADTAVYYCARHPSDAVYGYANNLWGQGTLVTVSS heavy: QVQLQESGPGLVKPSETLSLTCKVSGFSFSSGYDMCWIRQPPGKGLEWIGCVVAGSVDITYYASWAKGRVTISVDSSKNQFSLKLSSVTAADTAVYYCARKDAYSDAFNLWGQGTLVTVSSASTKGPSVFPLAPSSKSTSGGTAALGCLVKDYFPEPVTVSWNSGALTSGVHTFPAVLQSSGLYSLSSVVTVPSSSLGTQTYICNVNHKPSNTKVDKRVEPKSCDKTHTCPPCPAPEAAGGPSVFLFPPKPKDTLMISRTPEVTCVVVDVSHEDPEVKFNWYVDGVEVHNAKTKPREEQYNSTYRVVSVLTVLHQDWLNGKEYKCKVSNKALGAPIEKTISKAKGQPREPQVYTLPPSREEMTKNQVSLTCLVKGFYPSDIAVEWESNGQPENNYKTTPPVLDSDGSFFLYSKLTVDKSRWQQGNVFSCSVMHEALHNHYTQKSLSLSPGK | Kd [11]: 2.3 nM; koff [11]: 0.00042 s⁻¹; kon [11]: 180000 M⁻¹ s⁻¹; Kd [12]: 0.056 nM; koff [12]: 6.5e-05 s⁻¹; kon [12]: 1.2e+06 M⁻¹ s⁻¹
